We go through 167 variants from the RNAGym collection of RNA variant scans (doi:10.7554/elife.80360).

B1: HDV Ribozyme (parent)
chain: GGCCGGCAUGGUCCCAGCCUCCUCGCUGGCGCCGGCUGGGCAACAUUCCGAGGGGACCGUCCCCUCGGUAAUGGCGAAUGGGACCCA

This data set covers variants of B1. Kind of data set: self-cleavage, relative activity (ratio to wild type); higher = more cleavage; co-transcriptional.
Regarding U27A G68U, the self-cleavage worked out at 0.875.
The same measure for C26U G39A: 0.599; for C26U G39C: 0.475.
The same measure for C26U G39U: 0.936; for C26G G81C: 0.499.
Next, C26G G81A: 0.77; U27C C44A: 0.447; U27C C44G: 0.277.
Consider U27G A77C, for which the self-cleavage was 0.277.
Turning to C26U C32U, the self-cleavage worked out at 0.799.
The same measure for C26U C32A: 0.256.
In the case of C26U C32G, the self-cleavage was 0.125.
The same measure for U27G C32G: 0; for U27G C32U: 0.831; for U27G C32A: 0.185.
For U27A G34U, the self-cleavage was found to be 0.272.
Regarding U27G C48G, the self-cleavage is 0.923.
The same measure for U27G C57U: 0.987; for U27G C57A: 1.22.
Next, U27G C57G: 0.895; U27A U79C: 0.201.
Take U27G C58A: the self-cleavage worked out at 0.516.
In the case of U27G C58G, the self-cleavage was determined as 0.95.
Take U27A G29C: the self-cleavage was 0.158.
Next, U27A G29U: 0; U27G C62A: 1.09; U27G C62U: 1.02.
The same measure for U27G C62G: 1.14; for U27A G54U: 0.845.
Regarding U27A C75U, the self-cleavage is 0.0519.
Next, C26U C44U: 1.01; C26U C44A: 1.03; U27A C30U: 0.677.
The same measure for U27A C30A: 0.525; for U27C A70U: 0.72; for U27C A70G: 0.739.
Next, C26U G40A: 0.885; C26U G40C: 0.946; C26U C86A: 0.99.
As to C26U C86U, the self-cleavage worked out at 0.831.
Consider C26U C86G, for which the self-cleavage was found to be 1.14.
Next, U27G C49G: 0.665; C26U U72C: 0.906; C26U U72A: 0.731.
Next, U27C G38U: 0.131; U27C G38A: 0.0978.
Take U27G A45U: the self-cleavage amounted to 0.831.
The same measure for U27G A45C: 0.26.
In the case of C26U C57U, the self-cleavage came to 1.05.
With U27C C49A, the self-cleavage was found to be 0.776.
Next, U27C C49G: 0.962; U27C C75U: 0.161.
With C26U G52C, the self-cleavage came to 0.9.
With U27C G59C, the self-cleavage worked out at 0.751.
As for U27C G59A, the self-cleavage stood at 0.742.
Next, U27A C63U: 0.813.
For U27G A70G, the self-cleavage was 1.14.
On to U27C G55U, for which the self-cleavage turned out to be 0.426.
Next, U27C G55C: 0.847.
For the variant U27C G55A, the self-cleavage was 0.533.
Take C26U A78G: the self-cleavage was found to be 1.07.
The same measure for C26U A78U: 0.743; for U27G C63A: 1.07; for U27G C63U: 1.11.
Next, U27G C33A: 0.185; U27G C33U: 0.935; U27A C32U: 0.923.
In the case of U27A C32G, the self-cleavage came out at 0.0545.
Turning to U27A C32A, the self-cleavage came to 0.0604.
Consider C26G U79A, for which the self-cleavage was 0.692.
Next, C26G U79C: 0.458.
C26G U79G: the self-cleavage stood at 0.8.
Next, C26U C63U: 0.943.
In the case of C26U C63A, the self-cleavage was determined as 0.969.
The same measure for U27C G40U: 0.7; for U27C C57U: 0.707.
Next, U27C C57G: 0.639.
C26G G73C: the self-cleavage stood at 0.492.
As to C26G G73A, the self-cleavage was 0.57.
Next, U27C G28U: 0.0678; U27C G28A: 0.135; C26U A42G: 0.902.
Next, U27A A71C: 1.03; U27A A71G: 1.07.
The same measure for U27A G80C: 0.469; for U27C G34A: 0.289.
Regarding U27C U69C, the self-cleavage was 0.931.
As to U27C G39U, the self-cleavage stood at 0.467.
Consider U27C G39A, for which the self-cleavage came out at 0.175.
The same measure for U27A A83C: 0.739; for C26U G67U: 0.686.
Next, U27A C66A: 0.886; U27A C66G: 0.755.
As for C26U A43U, the self-cleavage came to 0.708.
Next, C26U A43G: 0.745; C26U A56C: 1.12; C26U A56U: 1.12.
The same measure for U27A U46G: 0.369.
The same measure for U27A U46C: 0.733.
Regarding U27G C30A, the self-cleavage is 0.458.
The same measure for U27A C84U: 0.795; for U27A C84A: 0.831; for C26G U72C: 0.862.
U27C A78G: the self-cleavage stood at 0.227.
The same measure for U27C A78U: 0.297; for C26G G82C: 0.499; for U27A U37G: 0.119.
Consider U27A U37A, for which the self-cleavage stood at 0.138.
Regarding U27A U37C, the self-cleavage is 0.578.
Consider U27A G52C, for which the self-cleavage worked out at 0.914.
Consider U27A G52A, for which the self-cleavage was found to be 0.844.
With C26U G53U, the self-cleavage turned out to be 1.22.
Next, C26U G53A: 1.16; C26U G53C: 1.04; C26U A83C: 0.95.
Turning to C26U C48A, the self-cleavage was 0.917.
Turning to C26U C48U, the self-cleavage was found to be 1.01.
Regarding C26U C48G, the self-cleavage came to 1.07.
The same measure for C26U A71U: 0.941; for C26U A71C: 0.748; for C26U A71G: 0.928.
Next, C26G G76C: 0.884; C26G G76A: 0.914.
The same measure for U27C A43C: 0.172; for U27A C57G: 0.8.
In the case of U27A C57U, the self-cleavage is 1.01.
Take U27G A42G: the self-cleavage came out at 0.289.
With C26U U37A, the self-cleavage came to 0.462.
The same measure for C26U C75A: 0.154; for C26U A45G: 0.831; for U27G C36A: 0.0639.
Consider U27G C36U, for which the self-cleavage was found to be 0.322.
For U27C G53U, the self-cleavage was 0.746.
Next, C26G U47C: 0.95; C26G U47A: 0.87; C26G U47G: 1.08.
U27C G68A: the self-cleavage was found to be 0.697.
U27C G68C: the self-cleavage is 0.511.
The same measure for C26G U27G: 0.208; for C26G U27C: 0.795.
As to C26G U27A, the self-cleavage worked out at 0.516.
The same measure for U27A G39A: 0.356; for U27A G39C: 0.0504; for U27A G81U: 0.502.
The same measure for U27C G35C: 0.
The same measure for U27A G38U: 0.0426; for U27A G38A: 0.
As to C26U C64A, the self-cleavage came out at 0.979.
Next, C26U C64G: 1.1.
The same measure for U27A C49A: 0.831.
The same measure for U27A A77U: 0.332; for U27A A77C: 0.
Take C26U G80C: the self-cleavage was 0.554.
The same measure for C26U G54A: 0.774; for C26U G54U: 1.07.
With U27C G31C, the self-cleavage amounted to 0.
Consider U27A A56U, for which the self-cleavage worked out at 0.923.
Next, U27A A56C: 0.914.
Consider U27G C44U, for which the self-cleavage was found to be 0.688.
U27G C44A: the self-cleavage was 0.475.
With C26U A51G, the self-cleavage was 0.95.
Turning to U27A G53A, the self-cleavage is 0.646.
Next, U27A G53U: 0.798; U27A C86G: 0.918.
Take U27C G82A: the self-cleavage was 0.396.
The same measure for U27C G82C: 0.356; for U27C U37A: 0.0519.
